# Data published in PMC5267388.
# Where “and” joins values, the source holds several entries; their conditions need not be identical. Identical values can stand only once.
# Target: PSD95, endogenous, from mouse brain lysate (mouse (endogenous in mouse brain)) (UniProt Q62108)
# Assay: co-IP
# Sequence of PSD95, endogenous, from mouse brain lysate (mouse (endogenous in mouse brain)) (Q62108 whole entry): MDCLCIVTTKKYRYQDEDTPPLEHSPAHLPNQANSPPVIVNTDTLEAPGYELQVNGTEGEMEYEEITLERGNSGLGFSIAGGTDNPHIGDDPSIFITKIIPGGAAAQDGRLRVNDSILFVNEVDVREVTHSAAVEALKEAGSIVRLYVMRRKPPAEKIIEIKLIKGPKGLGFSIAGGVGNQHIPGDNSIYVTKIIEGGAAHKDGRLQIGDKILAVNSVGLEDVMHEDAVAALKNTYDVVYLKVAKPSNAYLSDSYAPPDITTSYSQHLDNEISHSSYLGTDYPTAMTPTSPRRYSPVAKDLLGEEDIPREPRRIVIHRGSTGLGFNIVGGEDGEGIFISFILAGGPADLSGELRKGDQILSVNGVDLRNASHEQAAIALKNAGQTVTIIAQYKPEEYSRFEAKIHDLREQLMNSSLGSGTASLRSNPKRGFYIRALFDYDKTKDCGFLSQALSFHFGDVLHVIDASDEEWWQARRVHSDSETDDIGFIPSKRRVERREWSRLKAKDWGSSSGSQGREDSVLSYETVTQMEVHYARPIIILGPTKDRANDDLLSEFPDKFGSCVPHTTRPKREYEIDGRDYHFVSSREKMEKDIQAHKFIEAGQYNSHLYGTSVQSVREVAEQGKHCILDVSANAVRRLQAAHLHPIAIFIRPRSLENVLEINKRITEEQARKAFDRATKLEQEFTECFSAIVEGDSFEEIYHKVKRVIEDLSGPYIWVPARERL
# Sequence of Phosphorylated Sept7 (pT426), endogenous, from mouse brain lysate (O55131 2-436): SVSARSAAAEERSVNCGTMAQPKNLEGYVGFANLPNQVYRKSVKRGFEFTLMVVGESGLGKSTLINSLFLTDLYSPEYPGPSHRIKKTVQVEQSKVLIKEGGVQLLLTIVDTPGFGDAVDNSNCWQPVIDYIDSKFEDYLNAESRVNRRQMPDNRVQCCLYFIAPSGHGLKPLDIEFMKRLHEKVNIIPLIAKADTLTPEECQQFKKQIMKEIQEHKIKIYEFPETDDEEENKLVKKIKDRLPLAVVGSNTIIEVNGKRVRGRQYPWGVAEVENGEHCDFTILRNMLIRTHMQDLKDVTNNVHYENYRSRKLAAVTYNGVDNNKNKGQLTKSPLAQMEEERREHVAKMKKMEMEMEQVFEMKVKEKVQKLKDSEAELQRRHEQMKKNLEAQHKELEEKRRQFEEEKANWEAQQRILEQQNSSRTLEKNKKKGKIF
substance,measurement,value
"Phosphorylated Sept7 (pT426), endogenous, from mouse brain lysate (from UniProt O55131 1-436) (natural protein)",percent of endogenous Sept7 pulled down with PSD95,10% and 15%
